Vmax data for two molecules are collected here from US20050266469A1, “Alternatively spliced isoforms of checkpoint kinase 1 (CHK1)” (priority 2004, published 2005).

One series concerns the target T1, CHK1sv1 (Homo sapiens, UniProt O14757).
T1 construct: made in house; host or cells: SF9 insect cells (baculovirus, pVL1393 transfer vector)
T1 sequence (O14757 with tags, fused parts or gaps): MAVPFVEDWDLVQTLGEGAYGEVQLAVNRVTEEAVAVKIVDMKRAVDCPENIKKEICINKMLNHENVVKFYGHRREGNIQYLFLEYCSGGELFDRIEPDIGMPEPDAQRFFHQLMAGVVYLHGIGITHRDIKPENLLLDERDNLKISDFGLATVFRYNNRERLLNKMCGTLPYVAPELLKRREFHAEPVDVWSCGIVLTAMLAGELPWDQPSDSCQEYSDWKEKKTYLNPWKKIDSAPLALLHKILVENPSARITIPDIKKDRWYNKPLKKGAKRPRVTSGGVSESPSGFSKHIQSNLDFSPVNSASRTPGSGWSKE
The series is described as follows: CHK1sv1 kinase assay (Homogenous Time-Resolved Fluorescence, synthetic peptide substrate). The series is classed as biochemical. Particulars: phospho-peptide product per microgram of CHK1sv1; ATP and CDC25C peptide substrate at saturating concentrations. On the procedure:
CHK1sv1 activity was assayed in vitro using a synthetic peptide substrate. The phophopeptide product was quantitated using a Homogenous Time-Resolved Fluorescence assay system (Park et al., 1999, Anal. Biochem. 269:94-104). The reaction mixture contained 40 mM HEPES, pH 7.3; 100 mM NaCl; 10 mM MgCl2; 2 mM dithiothreitol; 0.1% BSA; 0.1 mM ATP; 0.5 μM peptide substrate; and 0.1 nM CHK1sv1 enzyme in a final volume of 40 μl. […] The kinase reaction was incubated for 30 minutes at 22° C., and then terminated with 60 μl Stop/Detection Buffer (40 mM HEPES, pH 7.3; 10 mM EDTA; 0.125% Triton X-100; 1.25% BSA; 250 nM PhycoLink Streptavidin-Allophycocyanin (APC) Conjugate (Prozyme, San Leandro, Calif.); and […] Europium-chelate labeled anti-phosphotyrosine antibody (PY20, Perkin Elmer, Boston, Mass.)). The reaction was allowed to equilibrate for 2 hours at 22° C., and relative fluorescent units were read on a Discovery plate reader (Packard Biosciences). ATP Km was determined by varying ATP concentration from 0.003 to 3 mM in the reaction described above and determining the relative enzymatic rates. […] CHK1sv1 Vmax was calculated by determining the amount of phospho-peptide product formed per microgram of CHKsv1 when both ATP and CDC25C peptide substrate are at saturating concentrations.

The next series has as its target T2, reference CHK1 (Homo sapiens, UniProt O14757).
T2 sequence (O14757 1-476): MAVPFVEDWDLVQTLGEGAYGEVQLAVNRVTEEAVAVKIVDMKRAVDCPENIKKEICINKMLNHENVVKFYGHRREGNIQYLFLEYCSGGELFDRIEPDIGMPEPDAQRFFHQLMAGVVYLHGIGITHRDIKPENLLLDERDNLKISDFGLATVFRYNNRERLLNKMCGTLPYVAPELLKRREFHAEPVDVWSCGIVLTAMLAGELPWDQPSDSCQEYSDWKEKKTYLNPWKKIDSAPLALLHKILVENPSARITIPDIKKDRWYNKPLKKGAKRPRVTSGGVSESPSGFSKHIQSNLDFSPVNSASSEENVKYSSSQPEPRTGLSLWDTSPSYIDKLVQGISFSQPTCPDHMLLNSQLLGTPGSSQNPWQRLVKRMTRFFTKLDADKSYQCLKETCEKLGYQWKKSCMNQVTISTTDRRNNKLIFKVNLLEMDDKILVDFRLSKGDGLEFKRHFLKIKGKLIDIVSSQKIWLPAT
Particulars: previously described (O'Neill et al., 2002; Jackson et al., 2000); cited from earlier work.

B1: CHK1sv1: splice variant isoform of human CHK1 protein, exon 9 spliced to exon 11, expressed in SF9 insect cells (protein, listed as Homo sapiens)
chain: MAVPFVEDWDLVQTLGEGAYGEVQLAVNRVTEEAVAVKIVDMKRAVDCPENIKKEICINKMLNHENVVKFYGHRREGNIQYLFLEYCSGGELFDRIEPDIGMPEPDAQRFFHQLMAGVVYLHGIGITHRDIKPENLLLDERDNLKISDFGLATVFRYNNRERLLNKMCGTLPYVAPELLKRREFHAEPVDVWSCGIVLTAMLAGELPWDQPSDSCQEYSDWKEKKTYLNPWKKIDSAPLALLHKILVENPSARITIPDIKKDRWYNKPLKKGAKRPRVTSGGVSESPSGFSKHIQSNLDFSPVNSASRTPGSGWSKE
Turning to B1, the Vmax with CHK1sv1 turned out to be 36 nmol/min/µg.

B2: CHK1: human checkpoint kinase 1 reference protein (protein, UniProt O14757 1-476, looked up)
Serine/threonine-protein …: MAVPFVEDWDLVQTLGEGAYGEVQLAVNRVTEEAVAVKIVDMKRAVDCPENIKKEICINKMLNHENVVKFYGHRREGNIQYLFLEYCSGGELFDRIEPDIGMPEPDAQRFFHQLMAGVVYLHGIGITHRDIKPENLLLDERDNLKISDFGLATVFRYNNRERLLNKMCGTLPYVAPELLKRREFHAEPVDVWSCGIVLTAMLAGELPWDQPSDSCQEYSDWKEKKTYLNPWKKIDSAPLALLHKILVENPSARITIPDIKKDRWYNKPLKKGAKRPRVTSGGVSESPSGFSKHIQSNLDFSPVNSASSEENVKYSSSQPEPRTGLSLWDTSPSYIDKLVQGISFSQPTCPDHMLLNSQLLGTPGSSQNPWQRLVKRMTRFFTKLDADKSYQCLKETCEKLGYQWKKSCMNQVTISTTDRRNNKLIFKVNLLEMDDKILVDFRLSKGDGLEFKRHFLKIKGKLIDIVSSQKIWLPAT
As to B2, the Vmax in the series with reference CHK1 is 0.6 nmol/min/µg.
